Common to all, as to assay: cell-based or functional assay
The target in assay [1] is T1, caspase-6 (UniProt P55212).
T1 sequence (looked up): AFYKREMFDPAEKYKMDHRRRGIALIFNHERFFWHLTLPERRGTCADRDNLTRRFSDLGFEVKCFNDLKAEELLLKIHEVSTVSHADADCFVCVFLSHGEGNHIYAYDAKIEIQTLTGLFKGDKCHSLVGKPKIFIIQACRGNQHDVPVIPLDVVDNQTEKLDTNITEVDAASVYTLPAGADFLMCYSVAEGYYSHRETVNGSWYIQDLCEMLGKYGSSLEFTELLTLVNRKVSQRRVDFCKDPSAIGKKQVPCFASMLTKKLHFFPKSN

Assay [2] deals with T2, caspase-3 (UniProt P42574).
T2 sequence (looked up): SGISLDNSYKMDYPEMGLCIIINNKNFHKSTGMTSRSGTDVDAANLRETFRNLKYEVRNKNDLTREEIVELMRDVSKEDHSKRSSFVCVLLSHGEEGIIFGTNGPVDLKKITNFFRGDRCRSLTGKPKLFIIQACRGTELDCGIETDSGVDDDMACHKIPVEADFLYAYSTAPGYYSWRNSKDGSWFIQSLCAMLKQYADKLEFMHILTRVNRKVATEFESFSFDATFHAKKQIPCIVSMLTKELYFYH

Assay [3] deals with autolytically stable caspase-1 variant (D381 E) (UniProt P29466).
Sequence of autolytically stable caspase-1 variant (D381 E) (P29466 other isoform, or with tags, fused parts or gaps mutant limits assumed): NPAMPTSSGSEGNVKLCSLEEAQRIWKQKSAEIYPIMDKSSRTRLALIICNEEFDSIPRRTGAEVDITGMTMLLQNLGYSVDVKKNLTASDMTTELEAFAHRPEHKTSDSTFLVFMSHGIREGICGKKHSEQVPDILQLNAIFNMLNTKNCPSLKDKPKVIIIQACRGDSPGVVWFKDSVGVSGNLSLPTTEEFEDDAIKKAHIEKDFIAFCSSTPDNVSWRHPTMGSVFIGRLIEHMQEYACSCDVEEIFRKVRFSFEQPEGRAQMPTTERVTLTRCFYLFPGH

Numbered stars: 1 amine (or outer) side, 2 acyl side, 3 side chain; on linkers, the order of the positions; unused ones are H or OH. Square brackets hold non-standard residues; d marks the D form. * marks the point of attachment. AAsp = aza-Asp, O=C(N(CC(=O)[*:3])N[*:1])[*:2]; Cbz = O=C(OCc1ccccc1)*; NHBn = c1ccc(CN*)cc1

Turning to Cbz-LET[AAsp]-{(2S,3S)‑EP‑CON(CH3)CH2Ph} [Cbz-Leu-Glu-Thr-AAsp-(2S,3S)-EP-CON(CH3)CH2Ph], the k2 in assay [1] was 9680 M⁻¹ s⁻¹; in assay [2], 2640 M⁻¹ s⁻¹.

In assay [2], Cbz-LET[AAsp]-{(S,S)‑EP‑CO-Ala-NHBn} [Cbz-Leu-Glu-Thr-AAsp-(S,S)-EP-CO-Ala-NHCH2Ph] came in with a k2 of 1280 M⁻¹ s⁻¹. Cbz-LET[AAsp]-{(S,S)‑EP‑COOCH2Ph} [Cbz-Leu-Glu-Thr-AAsp-(S,S)-EP-COOCH2Ph]: the k2 in assay [3] came to 43500 M⁻¹ s⁻¹; in assay [2], 3520 M⁻¹ s⁻¹.

The molecule Cbz-LET[AAsp]-{(S,S)‑EP‑CONHCH2CH2Ph} [Cbz-Leu-Glu-Thr-AAsp-(S,S)-EP-CONHCH2CH2Ph] showed a k2 in assay [2] of 2550 M⁻¹ s⁻¹. On to Cbz-LET[AAsp]-{(2R,3R)‑EP‑COOEt} [Cbz-Leu-Glu-Thr-AAsp-(2R, 3R)-EP-COOEt], for which the values for the k2 in assay [3] and in assay [2] were 19600 M⁻¹ s⁻¹ and 3250 M⁻¹ s⁻¹, respectively. For Cbz-LET[AAsp]-{(2S,3S)‑EP‑COOEt} [Cbz-Leu-Glu-Thr-AAsp-(2S, 3S)-EP-COOEt], in that order: 25700 M⁻¹ s⁻¹ and 3210 M⁻¹ s⁻¹. On to Cbz-LET[AAsp]-{(2S,3S)‑EP‑CON(CH2Ph)2} [Cbz-Leu-Glu-Thr-AAsp-(2S,3S)-EP-CON(CH2Ph)2], for which the k2 is 13800 M⁻¹ s⁻¹ in assay [1] and 2750 M⁻¹ s⁻¹ in assay [2].

The record behind these values is US20040048327A1.
